These results are taken from EP4803549A1 (Leads Biolabs Inc., dated 2026).

B1: humanized anti-GPRC5D VHH-Fc antibody 8H5 (antibody, human IgG1, V domains shown)
VH: EVQLLESGGGLVQPGGSLRLSCAASGIFLSASVMSWYRQAPGKQRELVASMLNSNTNYADSVKGRFTISRDNSKNTMYLQMNSLRAEDTAVYYCNAERSGVYWGQGTQVTVSS
notes: also called hu8H5; humanized anti-GPRC5D VHH 8H5-Fc
B2: 269B094 (a fully human monoclonal antibody targeting BCMA) (antibody, V domains shown)
VH: DVQLVESGGGLVQPGGSLRLSCAASGRTFSSIVMGWFRQAPGKEREFVGAIMWNDGITYLQDSVKGRFTIFRDNAKNTVYLQMNSLKLEDTAVYYCAASKGRYSEYEYWGQGTQVTVSS
notes: also called control antibody; control sample
B3: huBH56-3-IgG (antibody, V domains shown)
VH: EVQVVESGGGLIQPGGSLRLSCAASGFTFAPSAMSWARQPPGKEVEWVSGIYGDGRTTYADSVKGRFTISRDNSKNTVYLQMNSLRAEDTAVYYCVVGIRLLSESWAQALRGQGTQVTVSS
notes: Humanized VHH-Fc heavy-chain antibody; Fc with L234A, L235A, D265A, P329A
B4: huBH56-6-IgG (antibody, V domains shown)
VH: EVQLVESGGGLIQPGGSLRLSCAASGFTFAPSAMSWARQPPGKGLEWVSGIYGDGRTYYADSVKGRFTISRDNSKNTVYLQMNSLRAEDTAVYYCVVGIRLLSESWAQALRGQGTQVTVSS
notes: Humanized VHH-Fc heavy-chain antibody
B5: huBH56-4-IgG (antibody, V domains shown)
VH: EVQLVESGGGLIQPGGSLRLSCAASGFTFAPSAMSWARQPPGKEVEWVSGIYGDGRTYYADSVKGRFTISRDNSKNTVYLQMNSLRAEDTAVYYCVVGIRLLSESWAQALRGQGTQVTVSS
notes: as for B4
B6: huBH56-5-IgG (antibody, V domains shown)
VH: EVQVVESGGGLIQPGGSLRLSCAASGFTFAPSAMSWARQPPGKEVEWVSGIYGDGRTTYADSVKGRFTISRDNSKNTVYLQMNSLRAEDTAVYICVVGIRLLSESWAQALRGQGTQVTVSS
notes: as for B4
B7: huHA68-4-IgG (antibody, V domains shown)
VH: EVQLVETGGGLIQPGGSLRLSCAASGFTFSPSAMSWARQAPGKGLEWVSGIYGDGKAEYADSVKGRFTISRDNSKNTVYLQMNSLRAEDTAVYSCAVGIRPTDAPWAASLRGQGTLVTVSS
notes: as for B4
B8: HA68-IgG (antibody, V domains shown)
VH: QVQLVETGGGLVQPGGSLRLSCAASGFTFSPSAMNWARQAPGKGLEWVAGIYGDGKAEYADSVKGRFTISRDNAKNMVYLQMVNLRPEDTAVYSCAVGIRPTDAPWAASLRGQGTQVTVSS
notes: also called anti-human BCMA chimeric antibody
B9: huHA68-3-IgG (antibody, V domains shown)
VH: EVQLVETGGGLIQPGGSLRLSCAASGFTFSPSAMSWARQAPGKGLEWVSGIYGDGKAEYADSVKGRFTISRDNSKNTVYLQMNSLRAEDTAVYYCAVGIRPTDAPWAASLRGQGTLVTVSS
notes: as for B4
B10: BH56-IgG (antibody, V domains shown)
VH: EVQVVESGGGLVQAGESLTLSCAASGFTFAPSAMSWARQPPGKEVEWVSGIYGDGRTTYADSVKGRFTISRDNAKKTVTLQMNNLEPEDSGNYICVVGIRLLSESWAQALRGQGTQVTVSS
notes: as for B8
B11: 2xhuBH56-3-CD3ScFv (bispecific antibody)
heavy 1: EVQVVESGGGLIQPGGSLRLSCAASGFTFAPSAMSWARQPPGKEVEWVSGIYGDGRTTYADSVKGRFTISRDNSKNTVYLQMNSLRAEDTAVYYCVVGIRLLSESWAQALRGQGTQVTVSSGGGGSEVQVVESGGGLIQPGGSLRLSCAASGFTFAPSAMSWARQPPGKEVEWVSGIYGDGRTTYADSVKGRFTISRDNSKNTVYLQMNSLRAEDTAVYYCVVGIRLLSESWAQALRGQGTQVTVSSEPKSSDKTHTCPPCPAPEAAGGPSVFLFPPKPKDTLMISRTPEVTCVVVAVSHEDPEVKFNWYVDGVEVHNAKTKPREEQYNSTYRVVSVLTVLHQDWLNGKEYKCKVSNKALAAPIEKTISKAKGQPREPQVCTLPPSRDELTKNQVSLSCAVKGFYPSDIAVEWESNGQPENNYKTTPPVLDSDGSFFLVSKLTVDKSRWQQGNVFSCSVMHEALHNHYTQKSLSLSPGK
heavy 2: not shown
notes: HC1 carries two huBH56-3 VHHs in tandem (GGGGS linker) on Fc hole; HC2 is CD3ScFv-knob; also called anti-CD3/BCMA bispecific antibody; diabody
B12: huBH56-3-CD3ScFv (bispecific antibody)
heavy 1: EVQVVESGGGLIQPGGSLRLSCAASGFTFAPSAMSWARQPPGKEVEWVSGIYGDGRTTYADSVKGRFTISRDNSKNTVYLQMNSLRAEDTAVYYCVVGIRLLSESWAQALRGQGTQVTVSSEPKSSDKTHTCPPCPAPEAAGGPSVFLFPPKPKDTLMISRTPEVTCVVVAVSHEDPEVKFNWYVDGVEVHNAKTKPREEQYNSTYRVVSVLTVLHQDWLNGKEYKCKVSNKALAAPIEKTISKAKGQPREPQVCTLPPSRDELTKNQVSLSCAVKGFYPSDIAVEWESNGQPENNYKTTPPVLDSDGSFFLVSKLTVDKSRWQQGNVFSCSVMHEALHNHYTQKSLSLSPGK
heavy 2: not shown
notes: HC1 huBH56-3-hole (VHH, EPKSS, Fc hole); HC2 CD3ScFv-knob (CD3 VH, linker, CD3 VL, EPKSS, Fc knob); also called anti-CD3/BCMA bispecific antibody; diabody
B13: 2xhuHA68-4-CD3ScFv (bispecific antibody)
heavy 1: EVQLVETGGGLIQPGGSLRLSCAASGFTFSPSAMSWARQAPGKGLEWVSGIYGDGKAEYADSVKGRFTISRDNSKNTVYLQMNSLRAEDTAVYSCAVGIRPTDAPWAASLRGQGTLVTVSSGGGGSEVQLVETGGGLIQPGGSLRLSCAASGFTFSPSAMSWARQAPGKGLEWVSGIYGDGKAEYADSVKGRFTISRDNSKNTVYLQMNSLRAEDTAVYSCAVGIRPTDAPWAASLRGQGTLVTVSSEPKSSDKTHTCPPCPAPEAAGGPSVFLFPPKPKDTLMISRTPEVTCVVVAVSHEDPEVKFNWYVDGVEVHNAKTKPREEQYNSTYRVVSVLTVLHQDWLNGKEYKCKVSNKALAAPIEKTISKAKGQPREPQVCTLPPSRDELTKNQVSLSCAVKGFYPSDIAVEWESNGQPENNYKTTPPVLDSDGSFFLVSKLTVDKSRWQQGNVFSCSVMHEALHNHYTQKSLSLSPGK
heavy 2: not shown
notes: HC1 carries two huHA68-4 VHHs in tandem (GGGGS linker) on Fc hole; HC2 is CD3ScFv-knob; also called anti-CD3/BCMA bispecific antibody; diabody
B14: huHA68-4-CD3ScFv (bispecific antibody)
heavy 1: EVQLVETGGGLIQPGGSLRLSCAASGFTFSPSAMSWARQAPGKGLEWVSGIYGDGKAEYADSVKGRFTISRDNSKNTVYLQMNSLRAEDTAVYSCAVGIRPTDAPWAASLRGQGTLVTVSSEPKSSDKTHTCPPCPAPEAAGGPSVFLFPPKPKDTLMISRTPEVTCVVVAVSHEDPEVKFNWYVDGVEVHNAKTKPREEQYNSTYRVVSVLTVLHQDWLNGKEYKCKVSNKALAAPIEKTISKAKGQPREPQVCTLPPSRDELTKNQVSLSCAVKGFYPSDIAVEWESNGQPENNYKTTPPVLDSDGSFFLVSKLTVDKSRWQQGNVFSCSVMHEALHNHYTQKSLSLSPGK
heavy 2: not shown
notes: HC1 huHA68-4-hole; HC2 CD3ScFv-knob; also called anti-CD3/BCMA bispecific antibody; diabody

One assay deals with T1, human GPRC5D protein expressed on the cell surface (human, UniProt Q9NZD1 1-345).
T1 construct: NP_061124.1 (NCBI) and Q9NZD1 (UniProt) are printed; also called CHO-K1-huGPRC5D
T1 sequence (Q9NZD1 whole entry): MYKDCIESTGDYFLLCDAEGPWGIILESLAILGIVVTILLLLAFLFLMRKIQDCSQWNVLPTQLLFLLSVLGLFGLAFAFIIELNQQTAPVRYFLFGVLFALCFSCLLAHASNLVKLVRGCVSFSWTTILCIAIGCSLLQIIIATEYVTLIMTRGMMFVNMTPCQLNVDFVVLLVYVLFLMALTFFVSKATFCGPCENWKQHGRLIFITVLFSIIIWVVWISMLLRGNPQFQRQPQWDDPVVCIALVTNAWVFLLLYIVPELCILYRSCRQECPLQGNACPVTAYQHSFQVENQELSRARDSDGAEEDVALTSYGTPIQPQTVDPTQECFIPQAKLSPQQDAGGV
As to the kind of experiment: flow cytometry on 293T-huGPRC5D cells. On the technique in general: In flow cytometry, cells or beads pass a laser one at a time.
On to B1, for which the binding result was “binds”.

For a further assay, the target named is T2, human BCMA-His protein (ACRO, Cat#: BCA-H522y) (human, UniProt Q02223 1-54).
T2 construct: Bought protein; also called Human BCMA protein; huBCMA-his
T2 sequence: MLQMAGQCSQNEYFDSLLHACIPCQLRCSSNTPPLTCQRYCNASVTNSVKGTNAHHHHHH
Nature of the assay: BLI (ForteBio Octet RED96e), antibody on AHC sensor, 100 nM human BCMA-His, 1:1 model. (In BLI a coated tip is dipped into the sample, and binding shifts an interference pattern.)
What is called Kd is the constant that tells how readily two partners part at equilibrium. Read a low Kd as a tighter complex. The koff is the first-order rate constant of dissociation. Read a low koff as a long-lived complex. What is called kon is a measure of how fast the partners come together. A low value points to slow association. B2 gave a Kd of 1510 pM, a koff of 0.00155 s⁻¹ and a kon of 1e+06 M⁻¹ s⁻¹.
In the same order, the values of B3 are < 1 pM, < 1e-07 s⁻¹ and 1e+06 M⁻¹ s⁻¹.
In the case of B4, the Kd is < 1 pM, the koff was < 1e-07 s⁻¹ and the kon stood at 979000 M⁻¹ s⁻¹.
For B5 the same measures were < 1 pM, < 1e-07 s⁻¹ and 1e+06 M⁻¹ s⁻¹.
For B6 the same measures were < 1 pM, < 1e-07 s⁻¹ and 1e+06 M⁻¹ s⁻¹.
For B7 the same measures were < 1 pM, < 1e-07 s⁻¹ and 1e+06 M⁻¹ s⁻¹.
B8: the Kd was < 1 pM, the koff was < 1e-07 s⁻¹ and the kon stood at 1e+06 M⁻¹ s⁻¹.
In the same order, the values of B9 are < 1 pM, < 1e-07 s⁻¹ and 1e+06 M⁻¹ s⁻¹.
As to B10, the Kd was < 1 pM, the koff is < 1e-07 s⁻¹ and the kon came to 1e+06 M⁻¹ s⁻¹.

For a further assay, the target named is T3, human BCMA protein expressed on the cell surface (human, UniProt Q02223 1-184).
T3 construct: whole, on cells; also called CHO-K1-huBCMA; CHOK1-huBCMA
T3 sequence (looked up): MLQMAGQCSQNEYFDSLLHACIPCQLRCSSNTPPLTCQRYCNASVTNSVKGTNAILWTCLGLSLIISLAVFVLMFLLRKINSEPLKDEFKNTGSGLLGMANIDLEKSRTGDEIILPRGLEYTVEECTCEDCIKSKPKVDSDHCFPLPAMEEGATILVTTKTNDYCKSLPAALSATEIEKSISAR
Nature of the assay: flow cytometry on CHOK1-huBCMA cells.
On to B11, for which the binding result was “binds”.
The same measure, in the same setting: the entry for B12 is “binds”; for B13 it is “binds”; for B14 it is “binds”.
